This is an account of results in patent US20140011735A1, “ANTIVIRAL COMPOSITION” (AMRITA THERAPEUTICS LIMITED, priority 2011, published 2014).

Bounds are passed on as bounds.

Experiment [1] deals with HIV-1 virus, three clades (European, Indian and African origin). Conditions: three clades of HIV-1; due to interference in entry of HIV-1 to host cells; cited from earlier work.
In experiment [2] the test system is HIV-1 Env SF162 mediated fusion of HeLa effector cells with HEK293-CCR5 target cells expressing human CD4. The format is cell-based. The settings on record: β-Gal activity at 570 nm after 2.5 h at 37° C.; FIG. 4.
The subject of another experiment is HIV-1 NL4-3. The experiment can be described thus: Inhibition of HIV-1 NL4-3 replication in peripheral blood lymphocytes (p24 antigen ELISA). The format is cell-based. Conditions: FIG. 2, similar to Enfuvirtide (T20). A general note: In an ELISA, binding on a coated surface is turned into a signal by an enzyme label.

B1: azurin: 128 amino acid P. aeruginosa protein with anticancer, anti-HIV-1 and antiparasitic activity (protein, UniProt P00282 21-148, looked up)
Azurin: AECSVDIQGNDQMQFNTNAITVDKSCKQFTVNLSHPGNLPKNVMGHNWVLSTAADMQGVVTDGMASGLDKDYLKPDDSRVIAHTKLIGSGEKDSVTFDVSKLKEGEQYMFFCTFPGHSALMKGTLTLK
In the case of B1, in experiment [1], the “growth inhibition of HIV-1” value is no less than 90%.

B2: MPT63 (protein, UniProt P9WIP1 30-159, looked up)
Immunogenic protein MPT63: AYPITGKLGSELTMTDTVGQVVLGWKVSDLKSSTAVIPGYPVAGQVWEATATVNAIRGSVTPAVSQFNARTADGINYRVLWQAAGPDTISGATIPQGEQSTGKIYFDVTGPSPTIVAMNNGMEDLLIWEP
Regarding B2, in experiment [2], the “inhibition of cell to cell fusion compared to positive control Enfuvirtide (T20)” value was “more inhibition of cell to cell fusion”. The EC50 in the experiment with HIV-1 NL4-3 is 0.01 nM.

For orientation: EC50 means the concentration at which the effect is half-maximal.
